Experimental data from the supplement of paper PMC7877785.
± gives the uncertainty stated by the source.

Assay: self-splicing fitness, log relative to wild type (ln ratio); higher = more splicing; Tetrahymena group I intron in knt gene, E. coli kanamycin selection, DiMSum; sequences stand for … in CUCUCU…GGAGGGAAAAGUUAUCAGGCAUGCACCUGGUAGCUAGUCUUUAAACCAAUAGAUUGCAUCGGUUUAAAAGGCAAGACCGUCAAAUUGCGGGAAAGGGGUCAACAGCCGUUCAGUACCAAGUCUCAGGGGAAACUUUGAGAUGGCCUUGCAAAGGGUAUGGUAAUAAGCUGACGGACAUGGUCCUAACCACGCAGCCAAGUCCUAAGUCAACAGAUCUUCUGUUGAUAUGGAUGCAGUUCACAGACUAAAUGUCGGUCGGGGAAGAUGUAUUCUUCUCAUAAGAUAUAGUCGGACCUCUCCUUAAUGGGAGCUAGCGGAUGAAGUGAUGCAACACUGGAGCCGCUGGGAACUAAUUUGUAUGCGAAAGUAUAUUGAUUAGUUUUGGAGUACUCGUGGUCG
Outline: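 Pooled colonies went to amplicon sequencing on an Illumina HiSeq 2500 after six replicate transformations. The plates were LB agar with 100 μg/mL carbenicillin, 50 μM IPTG and 0.2% rhamnose, with or without 25 μg/mL kanamycin, incubated overnight at 37°C or 30°C. The E. coli BL21(DE3) library had all eight P1ex-region intron nucleotides randomised, the intron placed in the knt kanamycin-resistance gene on pET-22b(+). DiMSum fitness is the error-weighted combination of replicate fold changes, kanamycin against none, normalised to wild type.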

| Sequence | self-splicing fitness (ln) (30 °C) | self-splicing fitness (ln) (37 °C) |
| --- | --- | --- |
| AAGUAGCAAUAUUACGUAAU | -2.31 ± 0.1 | 0.0619 ± 0.096 |
| AAGUAGCAAUAUUACGUCAA | -2.25 ± 0.1 | -0.583 ± 0.083 |
| AAGUAGCAAUAUUACGUCAG | -3.38 ± 0.19 | -2.43 ± 0.18 |
| AAGUAGCAAUAUUACGUCAU | -2.29 ± 0.13 | -0.997 ± 0.12 |
| AAGUAGCAAUAUUACGUCCG | -1.53 ± 0.14 | -1.93 ± 0.14 |
| AAGUAGCAAUAUUACGUCGG | -2.97 ± 0.25 | -2.09 ± 0.26 |
| AAGUAGCAAUAUUACGUCUU | -0.577 ± 0.12 | -0.48 ± 0.11 |
| AAGUAGCAAUAUUACGUUAA | -2.47 ± 0.23 | -2.33 ± 0.18 |
| AAUAAGCAAUAUUACGACAU | -0.117 ± 0.012 | 0.0514 ± 0.032 |
| AAUAAGCAAUAUUACGAGAC | -3.14 ± 0.47 | -1.18 ± 0.23 |
| AAUAAGCAAUAUUACGAGGU | -4.58 ± 0.27 | -2.11 ± 0.18 |
| AAUAAGCAAUAUUACGAGUU | -1.32 ± 0.087 | -1.1 ± 0.1 |
| AAUAAGCAAUAUUACGAUCA | -0.507 ± 0.12 | 0.576 ± 0.13 |
| AAUAAGCAAUAUUACGAUGA | -0.45 ± 0.1 | -0.0904 ± 0.11 |
| AAUAAGCAAUAUUACGAUGG | -2.53 ± 0.14 | -0.861 ± 0.12 |
| AAUAAGCAAUAUUACGCAAG | -1.77 ± 0.1 | -1.59 ± 0.14 |
| AAUAAGCAAUAUUACGCCUC | -2.43 ± 0.35 | -1.19 ± 0.31 |
| AAUAAGCAAUAUUACGCCUU | -0.502 ± 0.12 | -0.0645 ± 0.18 |
| AAUAAGCAAUAUUACGCGAC | -1.61 ± 0.14 | -1.46 ± 0.14 |
| AAUAAGCAAUAUUACGCGAU | -2.22 ± 0.23 | -2.98 ± 0.35 |
| AAUAAGCAAUAUUACGCGCC | -0.204 ± 0.15 | -0.572 ± 0.16 |
| AAUAAGCAAUAUUACGCGCG | -0.258 ± 0.11 | 0.0567 ± 0.15 |
| AAUAAGCAAUAUUACGCGUC | -1.45 ± 0.13 | -1.15 ± 0.16 |
| AAUAAGCAAUAUUACGCUCU | -0.422 ± 0.079 | -0.115 ± 0.09 |

| Sequence | self-splicing fitness (ln) (30 °C) | self-splicing fitness (ln) (37 °C) |
| --- | --- | --- |
| AAUAAGCAAUAUUACGGAUU | -1.34 ± 0.096 | -0.185 ± 0.12 |
| AAUAAGCAAUAUUACGGCAC | -1.44 ± 0.11 | -0.634 ± 0.14 |
| AAUAAGCAAUAUUACGGCCG | -0.879 ± 0.12 | 0.196 ± 0.2 |
| AAUAAGCAAUAUUACGGGAA | -2.54 ± 0.28 | -0.437 ± 0.2 |
| AAUAAGCAAUAUUACGGGCA | -0.69 ± 0.1 | -0.292 ± 0.11 |
| AAUAAGCAAUAUUACGGGGC | -3.29 ± 0.26 | -2.91 ± 0.37 |
| AAUAAGCAAUAUUACGGUUA | -0.197 ± 0.08 | -0.369 ± 0.077 |
| AAUAAGCAAUAUUACGUCAC | -3.19 ± 0.17 | -3.17 ± 0.21 |
| AAUAAGCAAUAUUACGUCAU | -1.39 ± 0.062 | -0.608 ± 0.092 |
| AAUAAGCAAUAUUACGUGAC | -2.18 ± 0.2 | -2.76 ± 0.35 |
| AAUAAGCAAUAUUACGUUUC | -4.09 ± 0.28 | -2.46 ± 0.24 |
| AAUCAGCAAUAUUACGAAAG | -1.78 ± 0.12 | -0.272 ± 0.13 |
| AAUCAGCAAUAUUACGAGCC | -2.39 ± 0.16 | -0.744 ± 0.19 |
| AAUCAGCAAUAUUACGAGCG | -0.582 ± 0.063 | -0.11 ± 0.079 |
| AAUCAGCAAUAUUACGAGCU | -0.908 ± 0.093 | -0.226 ± 0.093 |
| AAUCAGCAAUAUUACGAGGG | -1.68 ± 0.088 | -0.681 ± 0.096 |
| AAUCAGCAAUAUUACGAUAU | 0.477 ± 0.082 | 0.538 ± 0.1 |
| AAUCAGCAAUAUUACGAUGG | -1.49 ± 0.1 | -0.853 ± 0.12 |
| AAUCAGCAAUAUUACGCACG | -1.02 ± 0.17 | -1.1 ± 0.16 |
| AAUCAGCAAUAUUACGCCAC | -3.91 ± 0.21 | -3.78 ± 0.39 |
| AAUCAGCAAUAUUACGCCGG | -1.15 ± 0.086 | -0.932 ± 0.099 |
| AAUCAGCAAUAUUACGCGAC | -1.17 ± 0.085 | -1.96 ± 0.15 |
| AAUCAGCAAUAUUACGCGGC | -1.53 ± 0.26 | 0.179 ± 0.16 |
| AAUCAGCAAUAUUACGCUGC | -3.58 ± 0.26 | -2.36 ± 0.19 |

| Sequence | self-splicing fitness (ln) (30 °C) | self-splicing fitness (ln) (37 °C) |
| --- | --- | --- |
| AAUCAGCAAUAUUACGGACC | 0.313 ± 0.13 | -0.451 ± 0.13 |
| AAUCAGCAAUAUUACGGCCA | -0.515 ± 0.11 | -0.146 ± 0.12 |
| AAUCAGCAAUAUUACGGCGC | -0.736 ± 0.096 | 0.0282 ± 0.11 |
| AAUCAGCAAUAUUACGGGAA | -1.37 ± 0.097 | 0.137 ± 0.078 |
| AAUCAGCAAUAUUACGGGUG | -0.238 ± 0.044 | 0.275 ± 0.06 |
| AAUCAGCAAUAUUACGGUAU | 0.192 ± 0.063 | 0.705 ± 0.088 |
| AAUCAGCAAUAUUACGGUCG | -0.214 ± 0.048 | 0.0375 ± 0.065 |
| AAUCAGCAAUAUUACGGUCU | -0.356 ± 0.06 | -0.224 ± 0.071 |
| AAUCAGCAAUAUUACGUAAU | -0.172 ± 0.059 | 0.204 ± 0.075 |
| AAUCAGCAAUAUUACGUACA | -0.484 ± 0.076 | 0.13 ± 0.1 |
| AAUCAGCAAUAUUACGUAGC | -1.93 ± 0.093 | -0.229 ± 0.12 |
| AAUCAGCAAUAUUACGUAGG | -1.61 ± 0.056 | -0.958 ± 0.077 |
| AAUCAGCAAUAUUACGUCAC | -3.34 ± 0.27 | -1.93 ± 0.19 |
| AAUCAGCAAUAUUACGUCGU | -0.489 ± 0.054 | 0.414 ± 0.071 |
| AAUCAGCAAUAUUACGUUAG | -3.15 ± 0.2 | -2.86 ± 0.23 |
| AAUCAGCAAUAUUACGUUCG | -1.51 ± 0.07 | -0.466 ± 0.089 |
| AAUCAGCAAUAUUACGUUUU | -0.639 ± 0.058 | -0.399 ± 0.085 |
| AAUGAGCAAUAUUACGAAAC | – | -1.27 ± 0.32 |
| AAUGAGCAAUAUUACGAAGA | -2.8 ± 0.19 | -2.91 ± 0.26 |
| AAUGAGCAAUAUUACGACCC | -3.25 ± 0.32 | 0.0637 ± 0.21 |
| AAUGAGCAAUAUUACGACUA | -2.47 ± 0.25 | -0.177 ± 0.21 |
| AAUGAGCAAUAUUACGAGAU | -3.92 ± 0.21 | -2.23 ± 0.13 |
| AAUGAGCAAUAUUACGAUCG | -3.6 ± 0.32 | -2.59 ± 0.24 |
| AAUGAGCAAUAUUACGAUGG | -1.98 ± 0.13 | -2.1 ± 0.26 |

| Sequence | self-splicing fitness (ln) (30 °C) | self-splicing fitness (ln) (37 °C) |
| --- | --- | --- |
| AAUGAGCAAUAUUACGCCCA | -2.56 ± 0.3 | -1.75 ± 0.32 |
| AAUGAGCAAUAUUACGCGAG | -2.49 ± 0.16 | -1.46 ± 0.14 |
| AAUGAGCAAUAUUACGCGUA | -2.4 ± 0.27 | -1.62 ± 0.25 |
| AAUGAGCAAUAUUACGCGUC | -3.02 ± 0.29 | -2.25 ± 0.29 |
| AAUGAGCAAUAUUACGCUCA | -1.91 ± 0.42 | -0.648 ± 0.38 |
| AAUGAGCAAUAUUACGGGGA | -2.54 ± 0.17 | -2.22 ± 0.25 |
| AAUGAGCAAUAUUACGGUAA | -1.61 ± 0.34 | -2.24 ± 0.4 |
| AAUGAGCAAUAUUACGGUGC | -3.37 ± 0.23 | -3.03 ± 0.27 |
| AAUGAGCAAUAUUACGGUUC | -2.91 ± 0.15 | -2.48 ± 0.18 |
| AAUGAGCAAUAUUACGUAUA | -3.43 ± 0.17 | -1.93 ± 0.13 |
| AAUGAGCAAUAUUACGUGAA | -2.17 ± 0.16 | -1.8 ± 0.27 |
| AAUGAGCAAUAUUACGUGAC | -3.08 ± 0.37 | -1.25 ± 0.19 |
| AAUGAGCAAUAUUACGUGGC | -2.82 ± 0.15 | -2.7 ± 0.2 |
| AAUGAGCAAUAUUACGUUAU | -4.01 ± 0.21 | -3.73 ± 0.24 |
| AAUUAGCAAUAUUACGAAAU | -1.2 ± 0.16 | -1.09 ± 0.23 |
| AAUUAGCAAUAUUACGACAG | -1.72 ± 0.32 | -0.992 ± 0.25 |
| AAUUAGCAAUAUUACGAGCC | – | -1.57 ± 0.47 |
| AAUUAGCAAUAUUACGAGGA | -2.64 ± 0.26 | -0.851 ± 0.18 |
| AAUUAGCAAUAUUACGAGUG | -1.08 ± 0.081 | -0.525 ± 0.11 |
| AAUUAGCAAUAUUACGAUCA | -0.335 ± 0.28 | -0.16 ± 0.22 |
| AAUUAGCAAUAUUACGCCGU | -0.928 ± 0.23 | -0.523 ± 0.26 |
| AAUUAGCAAUAUUACGCGUG | -0.374 ± 0.066 | -0.101 ± 0.083 |
| AAUUAGCAAUAUUACGCUAG | -2.38 ± 0.13 | -1.06 ± 0.13 |
